One substance from patent US20100092465A1, “TREATMENT OF GRAFT-VERSUS-HOST DISEASE” (priority 2006, published 2010) can be followed below.

The target of one test is T1, mouse IL-27 (Mus musculus, UniProt O35228+Q8K3I6).
T1 sequence (O35228+Q8K3I6 with tags, fused parts or gaps): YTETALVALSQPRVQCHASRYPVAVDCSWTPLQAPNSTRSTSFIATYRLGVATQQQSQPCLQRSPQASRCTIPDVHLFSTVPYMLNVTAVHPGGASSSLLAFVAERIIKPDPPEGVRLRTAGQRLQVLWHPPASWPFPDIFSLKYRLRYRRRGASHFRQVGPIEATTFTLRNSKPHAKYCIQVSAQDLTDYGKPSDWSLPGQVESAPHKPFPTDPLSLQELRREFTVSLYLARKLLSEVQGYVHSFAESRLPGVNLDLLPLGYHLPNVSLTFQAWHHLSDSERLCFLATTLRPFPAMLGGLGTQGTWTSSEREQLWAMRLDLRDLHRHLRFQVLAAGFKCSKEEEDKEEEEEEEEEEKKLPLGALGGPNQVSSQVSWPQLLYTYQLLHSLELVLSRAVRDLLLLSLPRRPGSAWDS
Briefly: IL-27 inhibition of IL-2 production neutralized by IL-27RA Fc. Format: cell-based. How it is done:
For testing of the soluble receptor, single-chain mouse IL-27 (10 ng/ml) was preincubated for 30 minutes at 37 degrees C. with either IL27RAm(mFc1) (10.0 and 5.0 .micro.g/ml), IL27RA-Fc5, mouse Fc1 protein (10.0 and 5.0 .micro.g/ml), human Fc5 protein (10.0 and 5.0 .micro.g/ml), or no recombinant protein in wells of the anti-CD3 coated plates. 4×10^5 CD4^+ CD62L high cells were added to the wells. Duplicate plates were set up for all experimental conditions. The plates were then cultured at 37 degrees for up to 72 hours. Cell supernatants were collected from one set of plates at 48 hours and from the duplicate set of plates at 72 hours. The supernatants were stored frozen at −80° C.

The test system of test [1] is acute graft-vs-host disease. In words: Mouse model of acute graft-vs-host disease. Format: in vivo. How it is done: Efficacy of IL-27 antagonists was assayed in a mouse model of acute graft-vs-host disease (Durie et al., J. Clin. Invest. 94:1333-1338, 1994). Parental mice (C57BL/6; n=12) were euthanized, and their spleens were collected. The pooled spleens were smashed using two glass slides to dissociate splenic cells. Lysis buffer was added to the splenocyte suspension to remove red blood cells. The cells were washed in RPMI 1640 (10% FBS) medium and resuspended in an appropriate amount of PBS to make a cell concentration of 300 million cells/ml. Protein treatments were administered by intraperitoneal injection every other day beginning on day-1 and continuing until day 15. Dexamethasone (DEX) was administered by injection daily on days 0 through 6. On day 0, 75 million donor splenic lymphocytes from B6 mice (250 .micro.l per injection) were injected intravenously into recipient mice (C57BL/6×DBA/2 F1 (BDF1); n=10 per group) mice. Mice were monitored 3 times a week for changes in body weight and any signs of moribundity. Mice that lost >20% of their initial body weight were euthanized. Otherwise, mice were sacrificed 18 days after the cell transfer. Spleens were collected, and a CTL-specific lysis assay using P815 cells was performed as a quantitative measurement of acute GVHD. Furthermore, spleens were stained for T- and B-cell markers, including MHC class I markers (H2^b and H2^d) to look at donor/recipient cell ratio (acute GVHD spleen cells are mostly donor cells). Sera were collected to measure serum level of IgG1, IgG2a, and IgE by ELISA, and cytokine and chemokine levels using a commercially available kit (Luminex Corporation, Austin, Tex.).

“And” between values parts separate entries of the source, which are not always exact repeats. Identical values can stand only once.

Turning to “human IL-27RA-Fc5: human IL27RA extracellular domain (amino acids 1 to 512 of SEQ ID NO:5) fused to Fc5, effector minus human gamma1 Fc; SEQ ID NO:3”, the IL-2 concentration with mouse IL-27 (48 hr, protein conc. 5 (µg/ml; Fc controls in molar equiv.) + IL-27 10 ng/ml) was 5784.11 pg/mL; with mouse IL-27 (48 hr, protein conc. 10 (µg/ml; Fc controls in molar equiv.) + IL-27 10 ng/ml, listed as hIL-27RA) it was 5774.94 pg/mL and 5333.6 pg/mL; with mouse IL-27 (72 hr, protein conc. 5 (µg/ml; Fc controls in molar equiv.) + IL-27 10 ng/ml), 1869.62 pg/mL; in the test with mouse IL-27 (72 hr, protein conc. 10 (µg/ml; Fc controls in molar equiv.) + IL-27 10 ng/ml, listed as hIL-27RA) it was 28607.63 pg/mL and 17481.17 pg/mL. Besides, in the test with mouse IL-27 (naïve CD4 T cells), the “inhibition (partial block) of the ability of mouse IL-27 to inhibit IL-2 production” value was around 50%. The colon length shortening entry in test [1] (mouse, in vivo) is on record as “did prevent colon length shortening”. Also, the splenomegaly entry in test [1] (mouse, in vivo) was “did not prevent splenomegaly”. For the same substance, in test [1] (proteins 100 µl of 1 mg/ml IP every other day, day -1 to 15, DEX daily days 0-6, day 18), the “maintenance of host spleen cells, CD4+ T cells, and Treg cells” value was “maintained host spleen cells, CD4+ T cells, and Treg cells”. Besides, the Body weight loss result in test [1] (versus PBS controls) was “not severe and was significantly less than in PBS controls”.
